The record followed here is the supplement of paper PMC10567573.

To fix the notation:
B1: ANKRD17 (parent)
chain: EVLRRLTSSVSCALDEAAAALTRM
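Also: lentivirally expressed fusions sorted by FACS into six bins by GFP to DsRed ratio, PSI derived from sequencing read proportions per bin multiplied by bin number.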

Variants of B1 are the subject of the data set. Put plainly: protein stability index of a GFP-peptide fusion (GPS, HEK-293T) (PSI 1-6); higher = more stable. Particulars: c terminus: a fixed tail appended.
On to EVLRRLTSSVSCALDEYAAALTRM [A17Y], for which the protein stability index came out at 2.49.
Then EVLRRLTSSVSCALDESAAALTRM [A17S], with 2.16.
As for EVLRRLTSSVSCALDEMAAALTRM [A17M], the figure is 1.85; as for EVLRRLTSSVSCALDECAAALTRM [A17C], 2.59.
Then EVLRRLTSSVSCALDEIAAALTRM [A17I], with 2.26; and EVLRRLTSSVSCALDEFAAALTRM [A17F], with 2.03; and EVLRRLTSSVSCALDELAAALTRM [A17L], with 2.34.
As for EVLRRLTSSVSCALDEDAAALTRM [A17D], the protein stability index is 1.46.
As for EVLRRLTSSVSCALDEEAAALTRM [A17E], the figure is 2.24; as for EVLRRLTSSVSCALDETAAALTRM [A17T], 2.13.
As for EVLRRLTSSVSCALDEVAAALTRM [A17V], the figure is 2.32.
Then EVLRRLTSSVSVALDEAAAALTRM [C12V], with 2.48; and EVLRRLTSSVSMALDEAAAALTRM [C12M], with 1.74.
As for EVLRRLTSSVSEALDEAAAALTRM [C12E], the protein stability index was 3.
Then EVLRRLTSSVSLALDEAAAALTRM [C12L], with 2.75.
Then EVLRRLTSSVSSALDEAAAALTRM [C12S], with 2.69.
Then EVLRRLTSSVSIALDEAAAALTRM [C12I], with 1.71.
On to EVLRRLTSSVSFALDEAAAALTRM [C12F], for which the protein stability index was found to be 1.78.
Take EVLRRLTSSVSQALDEAAAALTRM [C12Q]: the protein stability index stood at 2.41.
Then EVLRRLTSSVSWALDEAAAALTRM [C12W], with 2.27; and EVLRRLTSSVSTALDEAAAALTRM [C12T], with 2.97; and EVLRRLTSSVSKALDEAAAALTRM [C12K], with 2.73.
As to EVLRRLTSSVSYALDEAAAALTRM [C12Y], the protein stability index was 1.65.
Then EVLRRLTSSVSAALDEAAAALTRM [C12A], with 3.05; and EVLRRLTSSVSHALDEAAAALTRM [C12H], with 4.25.
As for EVLRRLTSSVSGALDEAAAALTRM [C12G], the figure is 3.18; as for EVLRRLTSSVSPALDEAAAALTRM [C12P], 1.91; as for EVLRRLTSSVSNALDEAAAALTRM [C12N], 3.93.
Then EVLRRLTSSVSCAHDEAAAALTRM [L14H], with 2.13; and EVLRRLTSSVSCACDEAAAALTRM [L14C], with 2.2.
Turning to EVLRRLTSSVSCAADEAAAALTRM [L14A], the protein stability index amounted to 2.23.
Then EVLRRLTSSVSCAKDEAAAALTRM [L14K], with 1.79; and EVLRRLTSSVSCAVDEAAAALTRM [L14V], with 1.77; and EVLRRLTSSVSCAPDEAAAALTRM [L14P], with 1.93.
Then EVLRRLTSSVSCARDEAAAALTRM [L14R], with 1.57.
Then EVLRRLTSSVSCANDEAAAALTRM [L14N], with 2.11; and EVLRRLTSSVSCASDEAAAALTRM [L14S], with 2.72; and EVLRRLTSSVSCAEDEAAAALTRM [L14E], with 3.61.
For EVLRRLTSSVSCAWDEAAAALTRM [L14W], the protein stability index was 1.81.
As for EVLRRLTSSVSCAQDEAAAALTRM [L14Q], the figure is 2.48; as for EVLRRLTSSVSCAFDEAAAALTRM [L14F], 1.23.
Then EVLRRLTSSVSCAYDEAAAALTRM [L14Y], with 2.27; and EVLRRLTSSVSCATDEAAAALTRM [L14T], with 2.77; and EVLRRLTSSVSCADDEAAAALTRM [L14D], with 1.94.
As for EVLRRLTSSVSCAIDEAAAALTRM [L14I], the figure is 2.22.
As to EVLRRLTSSVSCAMDEAAAALTRM [L14M], the protein stability index stood at 2.81.
Then EVLRRLTSSVSCALDTAAAALTRM [E16T], with 1.88; and EVLRRLTSSVSCALDYAAAALTRM [E16Y], with 2.43.
Then EVLRRLTSSVSCALDCAAAALTRM [E16C], with 2.46.
Then EVLRRLTSSVSCALDQAAAALTRM [E16Q], with 2.56; and EVLRRLTSSVSCALDLAAAALTRM [E16L], with 3.18.
Regarding EVLRRLTSSVSCALDIAAAALTRM [E16I], the protein stability index stood at 1.97.
In the case of EVLRRLTSSVSCALDDAAAALTRM [E16D], the protein stability index turned out to be 1.72.
For the variant EVLRRLTSSVSCALDFAAAALTRM [E16F], the protein stability index was determined as 3.12.
As for EVLRRLTSSVSCALDRAAAALTRM [E16R], the figure is 2.09.
Then EVLRRLTSSVSCALDSAAAALTRM [E16S], with 2.96; and EVLRRLTSSVSCALDAAAAALTRM [E16A], with 2.32.
As for EVLRRLTSSVSCALDNAAAALTRM [E16N], the figure is 3; as for EVLRRLTSSVSCALDVAAAALTRM [E16V], 1.6.
With EVLRRLTSSVSCALDKAAAALTRM [E16K], the protein stability index came to 1.54.
As for EVLRRLTSSVSCALDHAAAALTRM [E16H], the figure is 1.8; as for EVLRRLTSSVSCYLDEAAAALTRM [A13Y], 1.66; as for EVLRRLTSSVSCCLDEAAAALTRM [A13C], 2.58.
As for EVLRRLTSSVSCWLDEAAAALTRM [A13W], the figure is 2.07; as for EVLRRLTSSVSCTLDEAAAALTRM [A13T], 2.38.
As for EVLRRLTSSVSCELDEAAAALTRM [A13E], the figure is 2.34; as for EVLRRLTSSVSCSLDEAAAALTRM [A13S], 1.34.
EVLRRLTSSVSCMLDEAAAALTRM [A13M]: the protein stability index worked out at 1.6.
For EVLRRLTSSVSCNLDEAAAALTRM [A13N], the protein stability index was 1.69.
As for EVLRRLTSSVSCHLDEAAAALTRM [A13H], the figure is 2.42.
Then EVLRRLTSSVSCPLDEAAAALTRM [A13P], with 1.37.
Then EVLRRLTSSVSCVLDEAAAALTRM [A13V], with 1.16; and EVLRRLTSSVSCLLDEAAAALTRM [A13L], with 1.38; and EVLRRLTSSVSCFLDEAAAALTRM [A13F], with 2.2.
Take EVLRRLTSSVSCKLDEAAAALTRM [A13K]: the protein stability index was 2.55.
As for EVLRRLTSSVSCRLDEAAAALTRM [A13R], the protein stability index came out at 2.06.
As to EVLRRLTSSVSCILDEAAAALTRM [A13I], the protein stability index turned out to be 2.26.
Then EVLRRLTSSVSCQLDEAAAALTRM [A13Q], with 1.59.
Then EVLRRLTSSTSCALDEAAAALTRM [V10T], with 1.3; and EVLRRLTSSYSCALDEAAAALTRM [V10Y], with 1.65.
As for EVLRRLTSSSSCALDEAAAALTRM [V10S], the figure is 1.83.
Consider EVLRRLTSSRSCALDEAAAALTRM [V10R], for which the protein stability index turned out to be 1.07.
As for EVLRRLTSSISCALDEAAAALTRM [V10I], the figure is 2.13.
Consider EVLRRLTSSPSCALDEAAAALTRM [V10P], for which the protein stability index is 1.29.
As for EVLRRLTSSLSCALDEAAAALTRM [V10L], the figure is 2.21; as for EVLRRLTSSKSCALDEAAAALTRM [V10K], 2.15.
EVLRRLTSSWSCALDEAAAALTRM [V10W]: the protein stability index was found to be 1.4.
As to EVLRRLTSSNSCALDEAAAALTRM [V10N], the protein stability index is 1.94.
As for EVLRRLTSSVSCALDEAAAAFTRM [L21F], the figure is 1.65; as for EVLRRLTSSVSCALDEAAAAVTRM [L21V], 2.04; as for EVLRRLTSSVSCALDEAAAANTRM [L21N], 3.47.
Then EVLRRLTSSVSCALDEAAAAWTRM [L21W], with 1.6; and EVLRRLTSSVSCALDEAAAAHTRM [L21H], with 1.89; and EVLRRLTSSVSCALDEAAAACTRM [L21C], with 1.18.
